Laboratory results from IntAct's records for PubMed 17363896.

B1: Actin cytoskeleton-regulatory complex protein SLA1 (Saccharomyces cerevisiae), P32790 (parent)
chain: MTVFLGIYRAVYAYEPQTPEELAIQEDDLLYLLQKSDIDDWWTVKKRVIGSDSEEPVGLVPSTYIEEAPVLKKVRAIYDYEQVQNADEELTFHENDVFDVFDDKDADWLLVKSTVSNEFGFIPGNYVEPENGSTSKQEQAPAAAEAPAATPAAAPASAAVLPTNFLPPPQHNDRARMMQSKEDQAPDEDEEGPPPAMPARPTATTETTDATAAAVRSRTRLSYSDNDNDDEEDDYYYNSNSNNVGNHEYNTEYHSWNVTEIEGRKKKKAKLSIGNNKINFIPQKGTPHEWSIDKLVSYDNEKKHMFLEFVDPYRSLELHTGNTTTCEEIMNIIGEYKGASRDPGLREVEMASKSKKRGIVQYDFMAESQDELTIKSGDKVYILDDKKSKDWWMCQLVDSGKSGLVPAQFIEPVRDKKHTESTASGIIKSIKKNFTKSPSRSRSRSRSKSNANASWKDDELQNDVVGSAAGKRSRKSSLSSHKKNSSATKDFPNPKKSRLWVDRSGTFKVDAEFIGCAKGKIHLHKANGVKIAVAADKLSNEDLAYVEKITGFSLEKFKANDGSSSRGTDSRDSERERRRRLKEQEEKERDRRLKERELYELKKARELLDEERSRLQEKELPPIKPPRPTSTTSVPNTTSVPPAESSNNNNSSNKYDWFEFFLNCGVDVSNCQRYTINFDREQLTEDMMPDINNSMLRTLGLREGDIVRVMKHLDKKFGRENIASIPTNATGNMFSQPDGSLNVATSPETSLPQQLLPQTTSPAQTAPSTSAETDDAWTVKPASKSESNLLSKKSEFTGSMQDLLDLQPLEPKKAAASTPEPNLKDLEPVKTGGTTVPAAPVSSAPVSSAPAPLDPFKTGGNNILPLSTGFVMMPMITGGDMLPMQRTGGFVVPQTTFGMQSQVTGGILPVQKTGNGLIPISNTGGAMMPQTTFGAAATVLPLQKTGGGLIPIATTGGAQFPQTSFNVQGQQQLPTGSILPVQKTANGLISANTGVSMPTVQRTGGTMIPQTSFGVSQQLTGGAMMTQPQNTGSAMMPQTSFNAVPQITGGAMMPQTSFNALPQVTGGAMMPLQRTGGALNTFNTGGAMIPQTSFSSQAQNTGGFRPQSQFGLTLQKTGGIAPLNQNQFTGGAMNTLSTGGVLQQQQPQTMNTFNTGGVMQELQMMTTFNTGGAMQQPQMMNTFNTDGIMQQPQMMNTFNTGGAMQQPQQQALQNQPTGFGFGNGPQQSRQANIFNATASNPFGF
partner: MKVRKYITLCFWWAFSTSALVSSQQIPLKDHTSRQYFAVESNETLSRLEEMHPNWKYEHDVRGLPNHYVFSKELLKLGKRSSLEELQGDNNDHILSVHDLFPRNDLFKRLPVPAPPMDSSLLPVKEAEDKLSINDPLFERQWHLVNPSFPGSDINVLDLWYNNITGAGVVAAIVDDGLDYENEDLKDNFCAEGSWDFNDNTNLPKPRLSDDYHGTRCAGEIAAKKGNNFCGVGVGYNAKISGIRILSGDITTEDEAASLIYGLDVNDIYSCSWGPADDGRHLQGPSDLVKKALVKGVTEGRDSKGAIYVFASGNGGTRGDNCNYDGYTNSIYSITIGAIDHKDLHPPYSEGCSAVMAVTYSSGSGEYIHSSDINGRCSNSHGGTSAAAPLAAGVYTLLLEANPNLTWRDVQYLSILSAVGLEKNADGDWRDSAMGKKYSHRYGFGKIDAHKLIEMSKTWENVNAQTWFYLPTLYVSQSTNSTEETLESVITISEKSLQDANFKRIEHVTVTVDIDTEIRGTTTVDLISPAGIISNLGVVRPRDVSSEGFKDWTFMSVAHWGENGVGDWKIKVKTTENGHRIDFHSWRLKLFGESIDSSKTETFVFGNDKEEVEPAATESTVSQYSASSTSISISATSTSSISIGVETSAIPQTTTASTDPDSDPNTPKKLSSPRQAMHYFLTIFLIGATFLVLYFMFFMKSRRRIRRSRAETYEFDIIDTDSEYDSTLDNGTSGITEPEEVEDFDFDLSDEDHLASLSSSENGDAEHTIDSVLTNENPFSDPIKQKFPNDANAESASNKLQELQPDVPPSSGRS
B2: Kexin (Saccharomyces cerevisiae), P13134 (parent)
chain: B1 partner
partner: B1 chain

Variants of: B1
Details: with kex2_yeast KEX2, P13134
For K525A, the “effect of a mutation on the interaction” value was “disrupting interaction”.

Variants of: B1
Details: with kex2_yeast KEX2, P13134
Remark: another data set of the same source
In the case of K525A, the “effect of a mutation on the interaction” value is reported as “decreasing interaction”.

Variants of: B1
Details: with kex2_yeast KEX2, P13134
Remark: another data set of the same source
In the case of I531E, the “effect of a mutation on the interaction” value is reported as “disrupting interaction”.

Variants of: B1
Details: with kex2_yeast KEX2, P13134
Remark: another data set of the same source
F507A was tested, and the “effect of a mutation on the interaction” value was “disrupting interaction”.

Variants of: B1
Details: with kex2_yeast KEX2, P13134
Remark: another data set of the same source
With V529E the “effect of a mutation on the interaction” value was “disrupting interaction”.

Variants of: B1
Details: with kex2_yeast KEX2, P13134
Remark: another data set of the same source
In the case of V529E, the “effect of a mutation on the interaction” value is reported as “decreasing interaction”.

Variants of: B2
Details: with sla1_yeast SLA1, P32790
With D781A the “effect of a mutation on the interaction” value was “decreasing interaction”.

Variants of: B2
Details: with sla1_yeast SLA1, P32790
Remark: another data set of the same source
For F779A, the “effect of a mutation on the interaction” value was “disrupting interaction”.
